Where “and” joins values, the source holds several entries; their conditions need not be identical. Identical values can stand only once.
Key:
[1] = molecular target: Enhygromyxa salina luciferase LuxA (Enhygromyxa salina); assay: SAXS
[2] = molecular target: Enhygromyxa salina luciferase LuxA (Enhygromyxa salina); assay: SEC-MALS

- percent of the protein as dimers [1]: 82%
- percent of the protein as tetramers [1]: 18%
- stoichiometry N [1]: 2 and 4
- stoichiometry N [2]: 2 and 4
Substance: Enhygromyxa salina luciferase LuxA (enzyme)
